The labels stand for the following.
B1: Azoarcus group I ribozyme (parent)
chain: GUGCCUUGCGCCGGGAAACCACGCAAGGGAUGGUGUCAAAUUCGGCGAAACCUAAGCGCCCGCCCGGGCGUAUGGCAACGCCGAGCCAAGCUUCGGCGCCUGCGCCGAUGAAGGUGUAGAGACUAGACGGCACCCACCUAAGGCAAACGCUAUGGUGAAGGCAUAGUCCAGGGAGUGGCGAAAGUCACACAAACCGG

Variants of B1 are the subject of the series. Description: reverse-splicing fitness (ratio to wild type); higher = more active; in vitro selection; Mg2+ level not given. In short, it runs like this: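 An in vitro group I ribozyme library with randomized positions was T7-transcribed and gel-purified. In triplicate, 10 pmol RNA in EPPS pH 7.5 was reacted with 50 pmoles of a 30-nt RNA substrate for 1 h at 37 °C across several added MgCl2 levels (1–48 mM), then stopped with EDTA. Products were reverse transcribed from a substrate-complementary primer, PCR-amplified and sequenced (HiSeq 4000). Fitness is a variant's read proportion after selection over that before, normalised to wild type.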
Regarding C82U A111C A145G C169U, the reverse-splicing fitness came to 0.012. In the case of C82U A111C C150G U176G it was 0.00363; in that of C82U A111C C150G U176C, 0.0147. For C82U A111C C150G U176A the value was 0.00801; for C82U A111G A120C A145G C150G C169A U176G, 0.00661. Regarding C82U A111G A120C A145G C150G C169A U176C, the reverse-splicing fitness was determined as 0.0107. In the case of C82U A111G A120C A145G C150G C169A U176A it was 0.0113; in that of C82U A111G A120C A145C C150G C169G, 0.00679. In the case of C82U A111G A120C A145C C150G C169U it was 0.00749; in that of C82U A111G A120C A145C C150G C169A, 0.0076; in that of C82U A111C A145C C150G C169G U176G, 0.0058. For C82U A111C A145C C150G C169G U176C the value was 0.00811; for C82U A111C A145C C150G C169G U176A, 0.00798; for C82U A111C A145G C150U, 0.183. On to C82U A111C A145G C150G, for which the reverse-splicing fitness is 0.0275.

On to C82U A111C A145G C150A, for which the reverse-splicing fitness is 0.0325. In the case of C82U A111C A145C C150U it was 0.0562; in that of C82U A111C A145C C150G, 0.024; in that of C82U A111C A145U C150U C169G U176A, 0.0121.

For the variant C82U A111C A145U C150U C169G U176C, the reverse-splicing fitness was 0.0165. For C82U A111C A145U C150U C169G U176G the value was 0.00709; for C82U A111C C169U, 0.0123. For C82U A111C C169G the value was 0.00866; for C82U A111C C169A, 0.00958; for C82U A111G A120C A145C C150A U176A, 0.00938. In the case of C82U A111G A120C A145C C150A U176C, the reverse-splicing fitness came out at 0.00767.

Take C82U A111G A120C A145C C150A U176G: the reverse-splicing fitness came to 0.0038. For the variant C82U A111C A145G C150G C169G, the reverse-splicing fitness came to 0.00689. For C82U A111C A145G C150G C169A the value was 0.0079; for C82U A111C A145G C150G C169U, 0.00879.

Turning to C82U A111G A120C A145G C150G C169U, the reverse-splicing fitness worked out at 0.00846. For C82U A111G A120C A145G C150G C169G the value was 0.00678; for C82U A111G A120C A145G C150G C169A, 0.00845; for C82U A111C A145C C169G, 0.00983. As for C82U A111C A145C C169U, the reverse-splicing fitness came to 0.0113. As for C82U A111C A145C C169A, the reverse-splicing fitness came out at 0.00714. In the case of C82U A111C A145G C150U C169G it was 0.00802; in that of C82U A111C A145G C150U C169A, 0.00963. For C82U A111C A145G C150U C169U the value was 0.00955; for C82U A111C A145U C150A C169A, 0.00884; for C82U A111C A145U C150A C169G, 0.00682. In the case of C82U A111C A145U C150A C169U, the reverse-splicing fitness came to 0.0103.

In the case of C82U A111C C150U C169U, the reverse-splicing fitness was 0.0116. Take C82U A111C C150U C169A: the reverse-splicing fitness was found to be 0.00914. In the case of C82U A111C C150U C169G it was 0.00731.

For the variant C82U A111C C150A U176A, the reverse-splicing fitness came to 0.0143. For C82U A111C C150A U176C the value was 0.0276; for C82U A111C C150A U176G, 0.00812. In the case of C82U A111C A145G C150G U176G it was 0.00671; in that of C82U A111C A145G C150G U176C, 0.0166; in that of C82U A111C A145G C150G U176A, 0.0105.

Turning to C82U A111G A120C, the reverse-splicing fitness is 0.0555.

Consider C82U A111G A120C A145C C169A U176C, for which the reverse-splicing fitness was found to be 0.00404. For C82U A111G A120C A145C C169A U176G the value was 0.003.

For the variant C82U A111G A120C A145C C169A U176A, the reverse-splicing fitness was 0.00738.

Take C82U A111C A145C C150A U176A: the reverse-splicing fitness was determined as 0.0114. For C82U A111C A145C C150A U176G the value was 0.00685; for C82U A111C A145C C150A U176C, 0.0145; for C82U A111G A120C A145C C150U C169A U176C, 0.00487. In the case of C82U A111G A120C A145C C150U C169A U176A it was 0.00891; in that of C82U A111G A120C A145C C150U C169A U176G, 0.00468. For C82U A111C A145G C169G U176C the value was 0.0306; for C82U A111C A145G C169G U176A, 0.0236; for C82U A111C A145G C169G U176G, 0.00682. Consider C82U A111G A120C A145G C150G C169G U176G, for which the reverse-splicing fitness was 0.00471. For C82U A111G A120C A145G C150G C169G U176A the value was 0.00909; for C82U A111G A120C A145G C150G C169G U176C, 0.00625. In the case of C82U A111C C169A U176C it was 0.0243; in that of C82U A111C C169A U176A, 0.016; in that of C82U A111C C169A U176G, 0.00617.

Turning to C82U A111C A145U C150G C169U, the reverse-splicing fitness is 0.00877. In the case of C82U A111C A145U C150G C169G it was 0.00721; in that of C82U A111C A145U C150G C169A, 0.00756; in that of C82U A111C A145G C150U C169U U176C, 0.0121. In the case of C82U A111C A145G C150U C169U U176G it was 0.00645; in that of C82U A111C A145G C150U C169U U176A, 0.0144. Consider C82U A111C A145U C169U U176A, for which the reverse-splicing fitness was found to be 0.0163. For C82U A111C A145U C169U U176G the value was 0.00634; for C82U A111C A145U C169U U176C, 0.0143. In the case of C82U A111G A120C A145C C169G U176C, the reverse-splicing fitness was determined as 0.00852. For C82U A111G A120C A145C C169G U176G the value was 0.00381. C82U A111G A120C A145C C169G U176A: the reverse-splicing fitness is 0.0164. For C82U A111C A145G C169U U176G the value was 0.00688.

The record behind these values is the RNAGym collection of RNA variant scans (doi:10.1093/molbev/msab373).
